# From paper PMC5383425, “Differential CLE peptide perception by plant receptors implicated from structural and functional analyses of TDIF-TDR interactions” (PLoS ONE, 2017)
# Numbering of substitutions follows the chain as printed. Square brackets hold non-standard residues; d marks the D form. Ends that are not written are not given here. Hyp = O=C(O)[C@@H]1C[C@@H](O)CN1
# T1: ecdTDR W353A mutant (Arabidopsis thaliana, UniProt Q9FII5 30-642, W353A)
# T1 sequence: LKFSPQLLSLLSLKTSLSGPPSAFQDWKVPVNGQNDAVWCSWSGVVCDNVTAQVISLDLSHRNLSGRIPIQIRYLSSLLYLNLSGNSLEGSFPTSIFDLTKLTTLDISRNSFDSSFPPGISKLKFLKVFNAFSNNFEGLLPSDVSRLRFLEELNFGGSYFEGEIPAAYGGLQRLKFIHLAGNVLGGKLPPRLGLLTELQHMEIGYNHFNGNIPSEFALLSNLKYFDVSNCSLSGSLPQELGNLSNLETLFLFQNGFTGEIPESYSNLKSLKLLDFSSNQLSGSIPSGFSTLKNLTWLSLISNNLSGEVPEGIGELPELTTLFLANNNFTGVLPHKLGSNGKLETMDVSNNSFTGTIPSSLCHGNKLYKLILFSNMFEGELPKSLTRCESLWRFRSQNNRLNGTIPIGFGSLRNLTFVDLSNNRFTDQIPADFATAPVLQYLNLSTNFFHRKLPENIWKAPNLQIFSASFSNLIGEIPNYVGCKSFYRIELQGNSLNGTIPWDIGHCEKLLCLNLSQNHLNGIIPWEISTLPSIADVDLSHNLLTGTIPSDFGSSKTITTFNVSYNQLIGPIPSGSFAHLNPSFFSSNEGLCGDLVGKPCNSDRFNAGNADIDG
# T2: ecdTDR F279/F281 double alanine mutant (Arabidopsis thaliana, UniProt Q9FII5 30-642, F279 to alanine | F281 to alanine)
# T2 sequence: T1 sequence with F250A, F252A, A324W
# T3: ecdTDR S305A mutant (Arabidopsis thaliana, UniProt Q9FII5 30-642, S305A)
# T3 sequence: T1 sequence with S276A, A324W
# T4: ecdTDR mutant with all five N-terminal anchoring site-binding residues replaced by alanine (Arabidopsis thaliana, UniProt Q9FII5 30-642)
# T4 chain: T1 sequence with R109A, F132A, S133A, S158A, Y159A, A324W
# B1: Tracheary Element Differentiation Inhibitory Factor (TDIF) peptide (peptide)
# peptide: HEV[Hyp]SG[Hyp]NPISN
# notes: TDIF, the 12-residue CLE peptide processed from CLE41 and CLE44 of A. thaliana; printed as HEV(Hyp)SG(Hyp)NPISN; numbers count on: the 12-residue peptide; CLE44 encodes the same peptide; also called wild type TDIF; wtTDIF; source: synthetic peptide (peptide 2.0)
# Columns and labels:
# Assay in all cases: ITC
# [1] = molecular target: T1, ecdTDR W353A mutant
# [2] = molecular target: T2, ecdTDR F279/F281 double alanine mutant
# [3] = molecular target: T3, ecdTDR S305A mutant
# [4] = molecular target: T4, ecdTDR mutant with all five N-terminal …
binder,measurement,setting,value
B1,Kd,[1],862 nM
same,Kd,[2],887 nM
same,Kd,[3],455 nM
same,Kd,[4],3240 nM
